In patent publication US20260263647A1 (Dana-Farber, published 2026):

Legend:
[1] = target: T1, human CD45 on human peripheral blood mononuclear cells (PBMCs) (human, UniProt P08575 26-1306); assay: flow cytometry on human PBMCs
T1 construct: whole, on cells; The target is inferred from the cells used (CD45+ human PBMCs); also called hCD45
T1 sequence (looked up): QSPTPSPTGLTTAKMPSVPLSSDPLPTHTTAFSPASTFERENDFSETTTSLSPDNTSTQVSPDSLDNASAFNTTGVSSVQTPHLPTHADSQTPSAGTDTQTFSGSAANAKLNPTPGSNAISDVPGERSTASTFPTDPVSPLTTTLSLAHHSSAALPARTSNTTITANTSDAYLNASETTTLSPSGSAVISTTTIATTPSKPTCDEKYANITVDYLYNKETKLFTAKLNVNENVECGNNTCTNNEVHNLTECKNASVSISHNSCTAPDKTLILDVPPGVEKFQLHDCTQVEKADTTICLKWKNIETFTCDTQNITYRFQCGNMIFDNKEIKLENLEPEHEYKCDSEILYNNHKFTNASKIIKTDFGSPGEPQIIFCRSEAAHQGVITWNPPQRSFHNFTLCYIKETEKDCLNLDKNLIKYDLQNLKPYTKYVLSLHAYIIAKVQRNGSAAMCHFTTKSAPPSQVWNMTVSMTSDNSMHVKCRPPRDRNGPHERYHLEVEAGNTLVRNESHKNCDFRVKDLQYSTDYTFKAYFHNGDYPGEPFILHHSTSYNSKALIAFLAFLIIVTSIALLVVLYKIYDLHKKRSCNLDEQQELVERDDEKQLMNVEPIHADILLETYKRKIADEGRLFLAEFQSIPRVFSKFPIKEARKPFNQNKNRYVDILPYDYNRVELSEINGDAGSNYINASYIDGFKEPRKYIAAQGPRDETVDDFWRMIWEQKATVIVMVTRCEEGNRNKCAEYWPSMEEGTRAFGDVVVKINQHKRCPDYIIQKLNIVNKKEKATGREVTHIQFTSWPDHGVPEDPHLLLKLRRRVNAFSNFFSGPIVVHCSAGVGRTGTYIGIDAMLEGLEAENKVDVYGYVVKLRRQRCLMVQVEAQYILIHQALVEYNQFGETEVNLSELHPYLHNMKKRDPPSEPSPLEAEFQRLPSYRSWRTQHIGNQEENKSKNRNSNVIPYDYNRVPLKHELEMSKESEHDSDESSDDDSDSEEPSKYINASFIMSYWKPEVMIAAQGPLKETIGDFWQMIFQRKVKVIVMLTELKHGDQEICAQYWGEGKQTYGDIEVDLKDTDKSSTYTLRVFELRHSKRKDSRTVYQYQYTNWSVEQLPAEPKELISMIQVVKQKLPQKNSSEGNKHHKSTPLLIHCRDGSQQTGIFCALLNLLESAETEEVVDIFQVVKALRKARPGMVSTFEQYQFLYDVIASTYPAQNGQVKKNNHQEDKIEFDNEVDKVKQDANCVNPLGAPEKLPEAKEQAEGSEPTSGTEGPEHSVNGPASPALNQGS

[2] = target: T1, human CD45 on human peripheral blood …; assay: flow cytometry, staining of human PBMCs with different concentrations of the minibody

B1: CD45 minibody (anti-human CD45 antibody fragment, clone BC8 scFv fused to the IgG1 CH3 domain) (other)
chain: QVQLVESGGGLVQPGGSLKLSCAASGFDFSRYWMSWVRQAPGKGLEWIGEINPTSSTINFTPSLKDKVFISRDNAKNTLYLQMSKVRSEDTALYYCARGNYYRYGDAMDYWGQGTSVTVSKISGGGGSGGGGSGGGGSGGGGSGGGGSSDIVLTQSPASLAVSLGQRATISCRASKSVSTSGYSYLHWYQQKPGQPPKLLIYLASNLESGVPARFSGSGSGTDFTLNIHPVEEEDAATYYCQHSRELPFTFGSGTKLEIKGGGSEPKSPKSADKTHTAPQPREPQVYTLPPSRDELTKNQVSLTCLVKGFYPSDIAVEWESNGQPENNYKTTPPVLDSDGSFFLYSKLTVDKSRWQQGNVFSCSVMHEALHNHYTQKSLSLSPGKDYKDDDKHHHHHH
notes: also called anti-CD45-minibody probe; human CD45-PET probe
In the case of B1, the EC50 [1] is reported as roughly 5 nM and the EC50 [2] is reported as roughly 10 nM.
